Reference: patent US20230407373A1 (priority 2020, published 2023)

Tested on: HCoV-OC43 gRNA and sgRNA
Assay type: binding

B1: G3BP2: host protein of the core SARS-CoV-2 RNA interactome (protein, UniProt Q9UN86 2-482, looked up)
Ras GTPase-activating …: VMEKPSPLLVGREFVRQYYTLLNKAPEYLHRFYGRNSSYVHGGVDASGKPQEAVYGQNDIHHKVLSLNFSECHTKIRHVDAHATLSDGVVVQVMGLLSNSGQPERKFMQTFVLAPEGSVPNKFYVHNDMFRYEDEVFGDSEPELDEESEDEVEEEQEERQPSPEPVQENANSGYYEAHPVTNGIEEPLEESSHEPEPEPESETKTEELKPQVEEKNLEELEEKSTTPPPAEPVSLPQEPPKAFSWASVTSKNLPPSGTVSSSGIPPHVKAPVSQPRVEAKPEVQSQPPRVREQRPRERPGFPPRGPRPGRGDMEQNDSDNRRIIRYPDSHQLFVGNLPHDIDENELKEFFMSFGNVVELRINTKGVGGKLPNFGFVVFDDSEPVQRILIAKPIMFRGEVRLNVEEKKTRAARERETRGGGDDRRDIRRNDRGPGGPRGIVGGGMMRDRDGRGPPPRGGMAQKLGSGRGTGQMEGRFTGQRR
For B1, the “background (unweighted spectral count, no-probe control)” value was 1, the “target (unweighted spectral count)” value was 4 and the “target (unweighted spectral count, OC43 Probe II capture)” value was 4. For the same molecule, the “target (unweighted spectral count, OC43 Probe II)” value was 9.
